In this assay the target is T1, β2-microglobulin (UniProt P61769 21-119).
T1 construct: also called beta2-microglobulin
The assay can be described thus: ELISA.

T1 sequence (P61769 21-119 limits assumed): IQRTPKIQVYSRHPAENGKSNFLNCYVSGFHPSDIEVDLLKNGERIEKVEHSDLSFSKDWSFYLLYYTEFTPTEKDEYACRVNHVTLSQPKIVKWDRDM

B1: A2-DKK1 mAb (C2) (antibody, V domains shown)
VH: DVQLVESGGGLVQPGGSRKLSCAASGFTFSSFGMHWVRQAPEKGLEWVAYISSGSSTIYYADTVKGRFTISRDNPKNTLFLQMTSLRSEDTAMYYCARPYYYGSTYDAMDYWGQGTSVTVSS
VL: DIVMTQSHKLMSTSVGDRVTITCKASQDVGSTVAWYQQKPGQSPKLLIYWTSTRHTGVPDRFTGSGSGTDFTLTISNVQSVDLAVYFCQKFGSYPLTFGGGTKLEIK
notes: Murine monoclonal antibody from a Balb/c x SP2/0 hybridoma; also called C2 mAb; antibody C2
With B1, the binding result is on record as “no binding”.

These data come from patent US20220089707A1 (University of Texas, published 2022).
